Assay [1] has as its target T1, Akt wild-type recombinant protein (Akt1) (Homo sapiens (Human), UniProt P31749 1-480, as many as five phosphorylations seen by ESI-MS (positions not stated)).
T1 construct: also called Akt1 wild type
Nature of the assay: in vitro Akt1 kinase activity assay, biotinylated Bad-derived peptide substrate.

A further assay deals with T2, PKCδ.
T2 construct: Bought enzyme; also called PKC delta
Nature of the assay: in vitro PKC delta kinase activity assay, 33P-ATP, Flash Plate.

The target in another assay is T3, Cdc2.
T3 construct: Bought enzyme
The assay can be described thus: in vitro CDC2 kinase activity assay, 33P-ATP, Flash Plate.

Another assay addresses T4, SGK.
T4 chain: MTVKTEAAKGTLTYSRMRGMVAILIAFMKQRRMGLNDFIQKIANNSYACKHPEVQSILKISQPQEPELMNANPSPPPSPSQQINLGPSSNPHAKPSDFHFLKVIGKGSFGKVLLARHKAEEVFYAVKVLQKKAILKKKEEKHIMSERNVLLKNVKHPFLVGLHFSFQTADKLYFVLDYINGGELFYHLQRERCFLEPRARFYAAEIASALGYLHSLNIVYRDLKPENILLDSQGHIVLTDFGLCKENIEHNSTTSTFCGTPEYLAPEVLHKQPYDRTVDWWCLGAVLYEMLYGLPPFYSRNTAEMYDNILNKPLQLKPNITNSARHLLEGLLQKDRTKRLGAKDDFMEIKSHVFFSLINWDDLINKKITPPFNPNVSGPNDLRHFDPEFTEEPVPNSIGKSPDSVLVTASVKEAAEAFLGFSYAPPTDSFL
Nature of the assay: in vitro SGK kinase activity assay, 33P-ATP, Flash Plate.

The target of a further assay is T5, Src.
T5 construct: Bought enzyme
Nature of the assay: in vitro Src kinase activity assay, 33P-ATP, Flash Plate.

The target in a further assay is T6, PKCγ.
T6 construct: Bought enzyme; also called PKC gamma
The assay can be described thus: in vitro PKC gamma kinase activity assay, 33P-ATP, Flash Plate.

The target in the next assay is T7, PKA.
T7 construct: Bought enzyme
The assay can be described thus: in vitro PKA kinase activity assay, 33P-ATP, kemptide substrate, Flash Plate.

In general, Ki refers to the equilibrium dissociation constant of an inhibitor or competing ligand from its target.

T1 sequence (P31749 other isoform, or with tags, fused parts or gaps limits assumed): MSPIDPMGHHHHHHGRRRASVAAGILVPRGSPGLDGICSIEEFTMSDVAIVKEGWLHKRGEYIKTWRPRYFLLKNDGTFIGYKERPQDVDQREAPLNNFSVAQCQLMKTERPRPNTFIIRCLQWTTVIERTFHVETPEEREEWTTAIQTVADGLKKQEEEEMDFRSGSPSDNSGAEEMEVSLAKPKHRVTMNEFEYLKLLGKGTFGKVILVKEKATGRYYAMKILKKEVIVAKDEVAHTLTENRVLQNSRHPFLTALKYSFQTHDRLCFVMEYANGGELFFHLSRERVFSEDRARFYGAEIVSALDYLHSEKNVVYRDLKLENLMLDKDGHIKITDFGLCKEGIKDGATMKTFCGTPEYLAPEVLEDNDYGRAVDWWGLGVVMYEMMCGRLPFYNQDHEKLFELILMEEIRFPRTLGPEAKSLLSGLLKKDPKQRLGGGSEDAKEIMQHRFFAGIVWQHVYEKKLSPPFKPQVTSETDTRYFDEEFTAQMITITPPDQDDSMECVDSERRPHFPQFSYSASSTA

VELDPEFEPRARERTYSFGH [Peptide 1]: the Ki is 1.11 µM in assay [1]; greater than 42 µM with PKCδ; greater than 33 µM with Cdc2; 1 µM with SGK; greater than 33 µM in the assay with Src; greater than 30 µM with PKCγ. Besides, the Ki with PKA was greater than 34 µM.

B1: Peptide 4 (peptide)
peptide: VELDPEFEPRARERAYAFGH
notes: Made from peptide 2 by changing Thr at position 15 to Ala
For the molecule B1, the Ki in assay [1] was 0.095 µM; in the assay with PKCδ, greater than 42 µM; with Cdc2, greater than 33 µM; in the assay with SGK, 12.5 µM; in the assay with Src it was greater than 33 µM; with PKCγ it was greater than 30 µM. Moreover, the Ki with PKA was greater than 34 µM.

Source of the values: patent US20040038883A1 (published 2004).
